Publication PMC3983572

Target: protein interacting with C kinase 1 (PICK1), recombinant full-length (UniProt Q9EP80)
Experiment: fluorescence polarisation

UniProt Q9EP80, sequence (Q9EP80 whole entry): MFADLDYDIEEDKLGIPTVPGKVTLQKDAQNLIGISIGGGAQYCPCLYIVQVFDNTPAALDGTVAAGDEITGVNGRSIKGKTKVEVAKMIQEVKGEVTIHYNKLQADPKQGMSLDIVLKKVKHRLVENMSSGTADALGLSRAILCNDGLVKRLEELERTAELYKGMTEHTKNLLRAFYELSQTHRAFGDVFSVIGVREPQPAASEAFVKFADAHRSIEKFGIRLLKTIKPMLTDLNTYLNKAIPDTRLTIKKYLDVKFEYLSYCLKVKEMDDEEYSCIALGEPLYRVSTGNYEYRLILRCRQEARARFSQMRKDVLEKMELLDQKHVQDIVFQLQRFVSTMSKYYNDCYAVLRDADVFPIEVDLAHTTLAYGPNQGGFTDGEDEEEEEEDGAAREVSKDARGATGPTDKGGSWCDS

- Ki: 24 µM
Substance: unlabeled GluA2 peptide
